This assay deals with IL-17A (24-155) protein (human, UniProt Q16552 24-155). The assay can be described thus: indirect ELISA screening of hybridomas. (In general: In an ELISA, binding on a coated surface is turned into a signal by an enzyme label.)
IL-17A (24-155) protein, sequence (Q16552 24-155): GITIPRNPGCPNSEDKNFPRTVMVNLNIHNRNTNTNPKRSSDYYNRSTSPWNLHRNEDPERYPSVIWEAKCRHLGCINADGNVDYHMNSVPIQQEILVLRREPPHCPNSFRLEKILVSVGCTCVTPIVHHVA

B1: monoclonal murine antibody 2G2 (antibody, V domains shown)
VH: EVQLEQSGSELRSPGSSVKLSCKDFDSEVFPIADMSWVRQKPGHGFEWIGDILPSFGRTIYGEKFEDKAKVDADTVSNTAYLELNSLTSEDSAIYYCARGNYGFAYWGQGTLVTVSA
VL: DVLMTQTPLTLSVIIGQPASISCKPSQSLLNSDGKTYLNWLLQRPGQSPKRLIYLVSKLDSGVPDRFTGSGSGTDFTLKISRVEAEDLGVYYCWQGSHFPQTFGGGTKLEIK
notes: Mouse hybridoma antibody purified on protein A; also called antibody secreted by hybridoma cell line LT007 (IL-17A-2G2)
In the case of B1, the binding result was “binds”.

B2: monoclonal murine antibody 13E9 (antibody, V domains shown)
VH: EVKLQESGPGLVKPSQSLSLTCTVTSYSFTSDYAWSWIRQFPGIKLEWMGYITYSGVTSYNPSLKSRISITRDTSKNQFFLQLNSVTTEDTATYYCARADYDSYYTMDYWGQGTSVTVSS
VL: DIQLTQSPLSLPVSLGDQASISCRSSQSLVHSNGNTYLHWYLQKPGQSPRLLIYKVSNRFSGVPDRFSGSGSGTDFTLKISRVEAEDLGVYFCSQSTHFWTFGGGTKLEIK
notes: Mouse hybridoma antibody purified on protein A; also called antibody secreted by hybridoma cell line LT006 (IL-17A-13E9)
Take B2: the binding result was “binds”.

(Values after patent US20210122815A1 (AKESO BIOPHARMA, published 2021).)
